# Patent publication US20160257732A1 (published 2016)
# Several values for one entry are separate records, joined by “and”; a condition that tells them apart may be missing. Equal entries are not always repeated. Where two headings read alike, the source gives them in different places.
# B1: Antibody 8 (antibody, V domains shown)
# VH: QVQLQQSGPGLVKPSQTLSLTCVISGDTVSSNRATWNWMRQSPLRGLEWLGRTYYRSKWYNDYAVSVKSRVVINPDTSKNQVSLQLNTVTPDDSGVYFCARGGHITVFGVNIDAFDIWGLGTKVTVSS
# VL: DIQMTQSPSSLSASVGDRVTISCRASQRLNSYLHWYQQTPGQAPKLLIYATSTLQSGVSPRFSGSGSGTDFTLTISSLQPEDVATYYCQLSRTFGHGTKVEIK
# B2: Antibody 12 (antibody, V domains shown)
# VH: QVQLQQSGPGLVKPSQTLSLTCAISGDSVSSYNAVWNWIRQSPSRGLEWLGRTYYRSGWYNDYAESVKSRITINPDTSKNQFSLQLNSVTPEDTAVYYCARSGHITVFGVNVDAFDMWGQGTMVTVSS
# VL: DIQMTQSPSSLSASVGDRVTITCRTSQSLSSYTHWYQQKPGKAPKLLIYAASSRGSGVPSRFSGSGSGTDFTLTISSLQPEDFATYYCQQSRTFGQGTKVEIK
# B3: Antibody 14 (antibody, V domains shown)
# VH: QVQLQQSGPGLVKPSQTLSLTCAISGDSVSSNNAVWNWIRQSPSRGLEWLGRTYYRSKWYNDYAESVKSRITINPDTSKNQFSLQLNSVTPEDTAVYYCARSGHITVFGVNVDAFDMWGQGTTVTVSS
# VL: DIQMTQSPSSLSASVGDRVTITCRTSQSLSSYTHWYQQKPGKAPKLLIYAASSRLSGVPSRFSGSGSGTDFTLTISSLQPEDFATYYCQQSRTFGQGTKVEIK
# Legend:
# Test in all cases: cell-based or functional assay
# [1] = molecular target: HA of ca A/Texas/36/91 (H1N1) (influenza A virus)
# [2] = molecular target: HA of ca A/teal/Hong Kong/W312/97 (H6N1) (influenza A virus)
# [3] = molecular target: HA of A/Hong Kong/8/68 (H3N2) (influenza A virus)
# [4] = molecular target: HA of ca A/Vietnam/1203/04 (H5N1) (influenza A virus)
# [5] = molecular target: HA of A/Wyoming/03/03 (H3N2) (influenza A virus)
# [6] = molecular target: HA of ca A/New Caledonia/20/99 (H1N1) (influenza A virus)
# [7] = molecular target: T1, HA of ca A/chicken/Hong Kong/G9/97 (H9N2) (influenza A virus)
# [8] = molecular target: HA of A/Fort Monmouth/1/47 (H1N1) (influenza A virus)
# [9] = molecular target: HA of A/Victoria/3/75 (H3N2) (influenza A virus)
# [10] = molecular target: HA of ca A/Netherlands/219/03 (H7N7) (influenza A virus)
# [11] = molecular target: T2, HA of ca A/Brit. Columbia/CN-6/04 (H7N3-LP) (influenza A virus)
# [12] = molecular target: HA of ca A/swine/Missouri/06 (H2N3) (influenza A virus)
# [13] = molecular target: HA of A/Wisconsin/67/05 (H3N2) (influenza A virus)
# [14] = molecular target: HA of ca A/Beijing/262/95 (H1N1) (influenza A virus)
# [15] = molecular target: HA of A/New Jersey/8/76 (H1N1) (influenza A virus)
# [16] = molecular target: HA of A/Kawasaki/9/86 (H1N1) (influenza A virus)
# [17] = molecular target: HA of ca A/Panama/2007/99 (H3N2) (influenza A virus)
# [18] = molecular target: HA of ca A/Sydney/5/97 (H3N2) (influenza A virus)
# [19] = molecular target: HA of ca A/Perth/16/09 (H3N2) (influenza A virus)
# [20] = molecular target: HA of ca A/Hong Kong/213/03 (H5N1) (influenza A virus)
# [21] = molecular target: HA of ca A/Texas/36/91 (H1N1) (influenza A virus); remark: listed apart in the source
# [22] = molecular target: HA of ca A/teal/Hong Kong/W312/97 (H6N1) (influenza A virus); remark: listed apart in the source
# [23] = molecular target: HA of A/Hong Kong/8/68 (H3N2) (influenza A virus); remark: listed apart in the source
# [24] = molecular target: HA of ca A/mallard/Alberta/89/85 (H6N2) (influenza A virus)
# [25] = molecular target: HA of ca A/Vietnam/1203/04 (H5N1) (influenza A virus); remark: listed apart in the source
# [26] = molecular target: HA of ca A/Anhui/1/13 (H7N9) (influenza A virus)
# [27] = molecular target: HA of ca A/New Caledonia/20/99 (H1N1) (influenza A virus); remark: listed apart in the source
# [28] = molecular target: T1, HA of ca A/chicken/Hong Kong/G9/97 …; remark: listed apart in the source
# [29] = molecular target: HA of A/Fort Monmouth/1/47 (H1N1) (influenza A virus); remark: listed apart in the source
# [30] = molecular target: HA of A/Victoria/3/75 (H3N2) (influenza A virus); remark: listed apart in the source
# HA of virus H1-BS10 = molecular target: HA of virus H1-BS10
# [31] = molecular target: HA of ca A/Netherlands/219/03 (H7N7) (influenza A virus); remark: listed apart in the source
# [32] = molecular target: T2, HA of ca A/Brit. Columbia/CN-6/04 …; remark: listed apart in the source
# [33] = molecular target: HA of ca A/swine/Missouri/06 (H2N3) (influenza A virus); remark: listed apart in the source
# [34] = molecular target: HA of ca A/Beijing/262/95 (H1N1) (influenza A virus); remark: listed apart in the source
# [35] = molecular target: HA of A/New Jersey/8/76 (H1N1) (influenza A virus); remark: listed apart in the source
# [36] = molecular target: HA of A/Kawasaki/9/86 (H1N1) (influenza A virus); remark: listed apart in the source
# [37] = molecular target: HA of ca A/Japan/57 (H2N2) (influenza A virus)
# [38] = molecular target: HA of ca A/Sydney/5/97 (H3N2) (influenza A virus); remark: listed apart in the source
# [39] = molecular target: HA of ca A/Perth/16/09 (H3N2) (influenza A virus); remark: listed apart in the source
# [40] = molecular target: HA of A/Victoria/361/11 (H3N2) (influenza A virus)
# [41] = molecular target: HA of ca A/Hong Kong/213/03 (H5N1) (influenza A virus); remark: listed apart in the source
# [42] = molecular target: HA of swine-origin A/Minnesota/11/2010 H3N2 virus (influenza A virus)
# [43] = molecular target: HA of A/Wisconsin/67/05 (H3N2) (influenza A virus); remark: listed apart in the source
# [44] = molecular target: HA of ca A/Panama/2007/99 (H3N2) (influenza A virus); remark: listed apart in the source
Binder,"Neutralization IC50, H1-TX91 [21] [µg/mL]","Neutralization IC50, H6-HK97 [22] [µg/mL]","Neutralization IC50, H3-HK68 [23] [µg/mL]","Neutralization IC50, H6-AB85 [24] [µg/mL]","Neutralization IC50, H5-VM04 [25] [µg/mL]","Neutralization IC50, H7-ANU13 [26] [µg/mL]","Neutralization IC50, H1-Ncal99 [27] [µg/mL]","Neutralization IC50, H9-HK97 [28] [µg/mL]","Neutralization IC50, H1-FM47 [29] [µg/mL]","Neutralization IC50, H3-Vic75 [30] [µg/mL]","Neutralization IC50, H1-BS10 (HA of virus H1-BS10) [µg/mL]","Neutralization IC50, H7-NLD03 [31] [µg/mL]","Neutralization IC50, H7-BC04 [32] [µg/mL]","Neutralization IC50, H2-MO06 [33] [µg/mL]","Neutralization IC50, H1-BJ95 [34] [µg/mL]","Neutralization IC50, H1-NJ76 [35] [µg/mL]","Neutralization IC50, H1-Kaw86 [36] [µg/mL]","Neutralization IC50, H2-JP57 [37] [µg/mL]","Neutralization IC50, H3-Syd97 [38] [µg/mL]","Neutralization IC50, H3-Perth09 [39] [µg/mL]",also measured
B1,,,,,,,,,,,,,,,,,,,,,"Neutralization IC50, H1-TX91 [1]: 0.7 µg/mL; Neutralization IC50, H6-HK97 [2]: 2.97 µg/mL; Neutralization IC50, H3-HK68 [3]: 2.82 µg/mL; Neutralization IC50, H5-VM04 [4]: 3.9 µg/mL; Neutralization IC50, H3-Wy03 [5]: > 50 µg/mL; Neutralization IC50, H1-Ncal99 [6]: 2.06 µg/mL; Neutralization IC50, H9-HK97 [7]: 26.4 µg/mL; Neutralization IC50, H1-FM47 [8]: 1.37 µg/mL; Neutralization IC50, H3-Vic75 [9]: 3.83 µg/mL; Neutralization IC50, H7-NLD03 [10]: 12.8 µg/mL; Neutralization IC50, H7-BC04 [11]: 14.7 µg/mL; Neutralization IC50, H2-MO06 [12]: 2.62 µg/mL; Neutralization IC50, H3-WI05 [13]: > 50 µg/mL; Neutralization IC50, H1-BJ95 [14]: 10.6 µg/mL; Neutralization IC50, H1-NJ76 [15]: 2.26 µg/mL; Neutralization IC50, H1-Kaw86 [16]: 2.11 µg/mL; Neutralization IC50, H3-Pa99 [17]: > 50 µg/mL; Neutralization IC50, H3-Syd97 [18]: > 50 µg/mL; Neutralization IC50, H3-Perth09 [19]: > 50 µg/mL; Neutralization IC50, H5-HK03 [20]: 1.82 µg/mL"
B2,0.12,0.45,0.42,0.32,0.31,2.56,0.61,0.31,0.28,0.32,1.25,0.83,0.78,0.53,1.31,0.12,0.28,0.35,1.56,0.25,"Neutralization IC50, H3-VC11 [40]: 0.83 µg/mL; Neutralization IC50, H5-HK03 [41]: 0.17 µg/mL; Neutralizing activity IC50, swine-origin A/Minnesota/11/2010 [42]: 1.1 µg/mL and 1.2 µg/mL"
B3,0.09,0.26,0.65,0.26,0.33,2.12,0.67,0.44,0.44,0.44,1.93,1.16,0.86,0.65,2.09,0.11,0.35,0.67,1.82,0.47,"Neutralization IC50, H3-WI05 [43]: 1.19 µg/mL; Neutralization IC50, H3-Pa99 [44]: 4.36 µg/mL; Neutralization IC50, H3-VC11 [40]: 1.15 µg/mL; Neutralization IC50, H5-HK03 [41]: 0.21 µg/mL; Neutralizing activity IC50, swine-origin A/Minnesota/11/2010 [42]: 1.4 µg/mL and 2.3 µg/mL"
